The text below walks through data of publication PMC4250834 (Cell reports, 2014).

No end group written: not given here.

The test addresses T1, recombinant Clp1 (alone) (S. cerevisiae, UniProt Q08685 1-445).
T1 sequence (looked up): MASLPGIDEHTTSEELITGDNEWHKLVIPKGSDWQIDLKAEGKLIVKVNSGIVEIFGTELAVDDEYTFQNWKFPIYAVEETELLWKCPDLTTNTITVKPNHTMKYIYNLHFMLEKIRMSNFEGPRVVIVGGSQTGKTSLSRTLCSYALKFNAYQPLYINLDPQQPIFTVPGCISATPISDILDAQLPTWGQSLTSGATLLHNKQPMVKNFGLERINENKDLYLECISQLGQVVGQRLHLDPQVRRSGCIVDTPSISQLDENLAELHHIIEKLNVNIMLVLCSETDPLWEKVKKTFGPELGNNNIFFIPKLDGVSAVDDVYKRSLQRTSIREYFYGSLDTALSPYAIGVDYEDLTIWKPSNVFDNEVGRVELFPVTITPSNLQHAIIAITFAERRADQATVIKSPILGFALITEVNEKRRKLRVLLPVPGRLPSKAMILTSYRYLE
The test can be described thus: pull-down.

On to TTPISPDEEELGQRTAYHSKRDASTPLRS (peptide, UniProt P08518 915-943, looked up, also: biotin, site not given here) [biotinylated flap loop peptide (Rpb2 amino acids 915–943)], for which the binding result was “binds”.
